Data: publication PMC4565748 (Molecular immunology, 2015)
Where a chain is given by its changes, count along the chain named. Names may count otherwise.

B1: SCIN-A.R42A.Q49A (natural protein)
chain: STSLPTSNEYQNEKLANELKSLLDELNVNELATGSLNTYYKATIKISGAKAMYALKSKDFKKMSEAKYQLQKIYNEIDEALKSKY
B2: SCIN-A.R42A (natural protein)
chain: B1 chain with A49Q
B3: SCIN-A.Q49A (natural protein)
chain: B1 chain with A42R
B4: staphylococcal complement inhibitor SCIN-A, full-length wild type (natural protein)
chain: B1 chain with A42R, A49Q

Target: T1, complement C3b, site-specifically biotinylated (human, UniProt P01024 23-667; P01024 749-1663, biotin, site-specific (site not given))
Assay: AlphaScreen or HTRF

Binder | Kd [µM]
B1 | 14
B2 | 14
B3 | 0.12

Target: T1, complement C3b, site-specifically …
Assay: SPR

Binder | Kd [µM] | koff [s⁻¹] | kon [M⁻¹ s⁻¹]
B4 | 0.096 ± 0.016 | 0.051 | 550000
B2 | 6.6 ± 0.62 | 0.58 | 89000
B3 | 0.069 ± 0.0083 | 0.051 | 760000

Target: T1, complement C3b, site-specifically …
Assay: SPR
Remark: another data set of the same source

Binder | Kd [µM]
B4 | 0.145 ± 0.056
B1 | 15
B2 | 8.5 ± 0.12
B3 | 0.22 ± 0.098
